A short description of data set [1]: in vitro. The data set is classed as in vitro ADME. Conditions: human, plasma, plasma protein binding. The procedure:
To determine binding to plasma proteins, BCY18469 was labeled with ^68Ga (apparent molar activity 1 GBq/µmol). Thereafter, 10 µL of the labeling mixture were added to 100 µL of mouse or human plasma (mouse: BioIVT, United Kingdom, human: Sigma Aldrich, Germany). The mixture was left for 15 min at room temperature. Afterwards, the plasma was loaded into an ultrafiltration device (Amicon Ultra 0.5ml - 30 kDa, Merck, Germany) and centrifuged at 14,000 rpm for 30 min at r.t. The filtrate and the membrane were measured in a gamma counter (Wizard2, Perkin Elmer, Germany). The amount of plasma-bound compound was calculated based on the counts in the […] relative to the total counts (filtrate + membrane).

Data set [2] can be described thus: in vitro. The format is in vitro ADME. Conditions: plasma. The procedure: Determination of stability in plasma was performed with the ^177Lu-labeled peptide. 10 µL of the labeled compound were added into human or mouse plasma (mouse: BioIVT, United Kingdom, human: Sigma Aldrich, Germany) and incubated at 37 °C. Aliquots were taken at different time points during incubation (1, 6, 24, 48 and 72 h) to which acetonitrile (30 μL) was added in order to precipitate plasma proteins. After centrifugation at 13,000 rpm for 5 min at r.t. the supernatant was taken and analyzed via HPLC.

The test system of the next data set is HT1080 cells. The data set can be described thus: Cell surface binding and internalization assay. The data set is classed as cell-based, human. To be noted: listed as 68Ga-BCY18469. As to the method:
To assess internalization and specificity, HT1080 cells (10^5 cells/well) were seeded in a 24-well plate coated with poly-L-lysine one day before the experiment. […] To determine specific uptake, 'cold' (non-radiolabeled) BCY18469 was added to half of the wells at an excess concentration of 10 µM/well or, alternatively, the cells were kept at 4 °C during the experiment. Following the incubation, the cells were thoroughly rinsed with cold PBS (3 x 1 mL). Subsequently, surface bound radioactivity was removed by washing with 50 mM glycine (pH 2.8, 2 x 500 µL). Finally, the internalized fraction was determined by lysing the cells with 0.5 M NaOH (500 µL). All fractions were collected and measured using a gamma counter (Perkin Elmer Wizard2, Germany). All counts were standardized to the initial activity, and specific surface binding as well as specific internalization were calculated by subtracting the non-specific binding values obtained from the wells treated with an excess of 'cold' compound. Results were calculated and expressed as %AA/10^5 cells (% applied activity/10^5 cells).

The next data set in a line: in vivo. To be noted: female, BALC/c nu/nu, mouse, iv, 150 pmol, total radioactivity. The procedure: (§1) PET/MR imaging was performed in 8-week-old female BALC/c nu/nu mice (Charles River, Germany) which were subcutaneously inoculated on the right upper flank with 10^6 cells (1:1 in PBS:Matrigel). Tumor growth was monitored, and once size was approx. 300-500 mm^3, 150 pmol of [^68Ga]Ga-BCY18469 (4 - 9 MBq) was injected intravenously via tail vein with subsequent imaging performed under isoflurane anesthesia. For the PET imaging experiments with blocking, an excess (15 nmol) of non-radiolabeled BCY18469 was injected 5 mins before the injection of 300 pmol (4 MBq) of the ^68Ga-labeled compound. PET imaging consisted of a dynamic scan from 0 to 60 min p.i. (30 frames), followed by non-triggered localizer and a 3-step whole body T1-weighed 3D MR-scan (PET/MR 3T, Bruker BioSpin, Germany). Additionally, a 2 h p.i. static image (10 min scan) was recorded, followed by the same MR scan protocol. Data was obtained via ParaVision 3.0 and reconstructed using a Maximum-Likelihood Expectation-Maximization (MLEM) algorithm at 0.5 mm for 18 iterations. Reconstructed data was analyzed with PMOD 3.7.

A further data set has as its system MCF-7 tumor xenograft. To be noted: mouse, in vivo. As to the method:
as §1

Setting [3] is: 4°C, block with 10 µM non-labeled compound.

Numbered stars: 1 amine (or outer) side, 2 acyl side, 3 side chain; on linkers, the order of the positions; unused ones are H or OH. Bridge positions count the residues as written; N and C are the ends. Square brackets hold non-standard residues; d marks the D form. Peptide text beside a SMILES is read from it. * marks the point of attachment. DOTA = O=C(O)CN1CCN(CC(=O)O)CCN(CC(=O)*)CCN(CC(=O)O)CC1; TATA = O=C(CC[*:1])N1CN(C(=O)CC[*:2])CN(C(=O)CC[*:3])C1; Hyp = O=C(O)[C@@H]1C[C@@H](O)CN1; hArg = N=C(N)NCCCC[C@H](N)C(=O)O; Cba = N[C@@H](CC1CCC1)C(=O)O; βAla = NCCC(=O)O; Sar = CNCC(=O)O

Broadly, the fraction unbound is free concentration divided by total concentration. Read a low fraction unbound as extensive binding. One may read the amount remaining as the share of the starting amount still present when the sample was taken. High values mean less turnover, low ones more turnover. In “in vitro [1]”, `CC(C)C[C@@H]1NC(=O)[C@@H]2CSCCC(=O)N3CN(CN(C3)C(=O)CCSC[C@H](NC(=O)[C@H](CC(=O)O)NC(=O)[C@H](CCCCNC(=N)N)NC(=O)[C@H](C)NC(=O)CN(C)C(=O)CN(C)C(=O)CN(C)C(=O)CN(C)C(=O)CN(C)C(=O)CN(C)C(=O)CN(C)C(=O)CN(C)C(=O)CN(C)C(=O)CN(C)C(=O)CCNC(=O)CN3CCN(CC(=O)O)CCN(CC(=O)O)CCN(CC(=O)O)CC3)C(=O)N3C[C@H](O)C[C@H]3C(=O)N[C@@H](CC3CCC3)C(=O)N[C@@H](C(C)C)C(=O)N[C@@H](CC(N)=O)C(=O)N3CCC[C@H]3C(=O)N[C@@H](CC(C)C)C(=O)N2)C(=O)CCSC[C@@H](C(N)=O)NC(=O)[C@H](CCCCNC(=N)N)NC(=O)[C@H](Cc2c[nH]c3ccccc23)NC(=O)[C@@H](CC(=O)O)NC(=O)[C@@H]2CCCN2C(=O)[C@H](Cc2c[nH]cn2)NC1=O` [[68Ga]Ga-BCY18469, metal not drawn] ({DOTA-βAla}-[Sar][Sar][Sar][Sar][Sar][Sar][Sar][Sar][Sar][Sar]A[hArg]DC[Hyp][Cba]VNPLCLHP[dD]W[hArg]C-NH2; linker 14-21-28 via TATA) showed an unbound share (fraction unbound) at 15 min of around 0.5. Also, the results for the share remaining at 72 h in the data set “in vitro [2]” (human) and in the data set “in vitro [2]” (mouse) were 94% and 40%, respectively. Besides, in the data set on HT1080 cells (setting [3]), the “Cell Surface B 4°C” value came to 0.03 ± 0.01 %AA/10^5 cells. Moreover, the “Internalization B 4°C” value in the data set on HT1080 cells (setting [3]) worked out at 0.01 ± 0.00 %AA/10^5 cells. For the same compound, the “Cell Surface 4°C” value with HT1080 cells (4°C) was 0.47 ± 0.01 %AA/10^5 cells. The “Internalization 4°C” value in the data set on HT1080 cells (4°C) was determined as 0.05 ± 0.01 %AA/10^5 cells. Further, the “Cell Surface” value in the data set with HT1080 cells (37°C, 45 min, 30 nM) turned out to be 0.53 ± 0.03 %AA/10^5 cells. In the data set with HT1080 cells (37°C, 45 min, 30 nM), this compound showed an Internalization of 0.18 ± 0.05 %AA/10^5 cells. For the same compound, the “Internalization B” value in the data set with HT1080 cells (37°C, block with 10 µM non-labeled compound) is recorded as 0.06 ± 0.00 %AA/10^5 cells. Also, the SUV came to 0.41 SUV in the data set “in vivo” (Bladder uptake), 3.15 SUV in “in vivo” (Kidneys uptake), 1.13 SUV in “in vivo” (Liver uptake) and 0.67 SUV in “in vivo” (Tumor uptake). Further, the SUV at 1 h in “in vivo” (Tumor SUVbw) was determined as 1.7 SUV. Also, in the data set “in vivo” (Tumor SUVbw), the SUV at 2 h is 1.2 SUV. Moreover, in the data set with MCF-7 tumor xenograft, the “uptake in the tumor” value was “no uptake”.

These data come from paper PMC11373624, “Development and preclinical characterization of a novel radiotheranostic EphA2-targeting bicyclic peptide” (Theranostics, 2024).
